B1: PDZK1 (parent)
chain: RETASLKLLPHQPRIVEMKKGSNG
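Also: lentivirally expressed fusions sorted by FACS into six bins by GFP to DsRed ratio, PSI derived from sequencing read proportions per bin multiplied by bin number.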

The variants in the data set derive from B1. Put plainly: protein stability index of a GFP-peptide fusion (GPS, HEK-293T) (PSI 1-6); higher = more stable. As to conditions: c terminus: a fixed tail appended.
For the variant RETASLKLLPHQPKIVEMKKGSNG, the protein stability index came to 3.38.

With RETASLKLLPHQPEIVEMKKGSNG, the protein stability index came to 4.07. The result for RETASLKLLPHQPHIVEMKKGSNG reads 3.7; that for RETASLKLLPHQPAIVEMKKGSNG, 4.25; that for RETASLKLLPHQPMIVEMKKGSNG, 2.93.

As to RETASLKLLPHQPTIVEMKKGSNG, the protein stability index is 4.22. In the case of RETASLKLLPHQPYIVEMKKGSNG it was 3.34; in that of RETASLKLLPHQPSIVEMKKGSNG, 3.87; in that of RETASLKLLPHQPCIVEMKKGSNG, 3.63. For RETASLKLLPHQPGIVEMKKGSNG, the protein stability index was 4.05. Regarding RETASLKLLPHQPIIVEMKKGSNG, the protein stability index amounted to 3.86. Take RETASLKLLPHQPWIVEMKKGSNG: the protein stability index stood at 3.3. As to RETASLKLLPHQPDIVEMKKGSNG, the protein stability index was 4.61. Take RETASLKLLPHQPNIVEMKKGSNG: the protein stability index was found to be 4.13.

With RETASLKLLPHQPRAVEMKKGSNG, the protein stability index turned out to be 4.78. In the case of RETASLKLLPHQPRCVEMKKGSNG, the protein stability index was 4.3. Consider RETAQLKLLPHQPRIVEMKKGSNG, for which the protein stability index stood at 3.44. For RETAGLKLLPHQPRIVEMKKGSNG, the protein stability index was 3.26. RETAVLKLLPHQPRIVEMKKGSNG: the protein stability index was 3.32.

Take RETAILKLLPHQPRIVEMKKGSNG: the protein stability index was found to be 2.82.

Take RETAFLKLLPHQPRIVEMKKGSNG: the protein stability index amounted to 1.88.

As for RETARLKLLPHQPRIVEMKKGSNG, the protein stability index was 3.38.

As to RETALLKLLPHQPRIVEMKKGSNG, the protein stability index worked out at 3.73. On to RETAPLKLLPHQPRIVEMKKGSNG, for which the protein stability index turned out to be 3. Regarding RETAELKLLPHQPRIVEMKKGSNG, the protein stability index worked out at 3.61.

With RETAKLKLLPHQPRIVEMKKGSNG, the protein stability index amounted to 2.67. The result for RETAWLKLLPHQPRIVEMKKGSNG reads 2.36; that for RETAYLKLLPHQPRIVEMKKGSNG, 2.47. The result for RETATLKLLPHQPRIVEMKKGSNG reads 3.39; that for RETADLKLLPHQPRIVEMKKGSNG, 3.77; that for RETANLKLLPHQPRIVEMKKGSNG, 2.93. The result for RETAHLKLLPHQPRIVEMKKGSNG reads 2.98; that for RETACLKLLPHQPRIVEMKKGSNG, 3.2. In the case of RETTSLKLLPHQPRIVEMKKGSNG, the protein stability index stood at 3.32. In the case of RETSSLKLLPHQPRIVEMKKGSNG it was 3.17. In the case of RETWSLKLLPHQPRIVEMKKGSNG it was 2.37; in that of RETNSLKLLPHQPRIVEMKKGSNG, 3.81; in that of RETPSLKLLPHQPRIVEMKKGSNG, 3.8. In the case of RETRSLKLLPHQPRIVEMKKGSNG it was 3.88. With RETYSLKLLPHQPRIVEMKKGSNG, the protein stability index is 3.19.

RETVSLKLLPHQPRIVEMKKGSNG: the protein stability index came out at 3.21. For RETQSLKLLPHQPRIVEMKKGSNG, the protein stability index is 3.29. With RETMSLKLLPHQPRIVEMKKGSNG, the protein stability index is 3.27. For RETLSLKLLPHQPRIVEMKKGSNG, the protein stability index amounted to 3.05. In the case of RETASLKLTPHQPRIVEMKKGSNG it was 3.61; in that of RETASLKLKPHQPRIVEMKKGSNG, 3.99; in that of RETASLKLYPHQPRIVEMKKGSNG, 3. The result for RETASLKLWPHQPRIVEMKKGSNG reads 2.76. As to RETASLKLQPHQPRIVEMKKGSNG, the protein stability index was determined as 3.5. Take RETASLKLNPHQPRIVEMKKGSNG: the protein stability index is 3.79. In the case of RETASLKLRPHQPRIVEMKKGSNG it was 3.63; in that of RETASLKLAPHQPRIVEMKKGSNG, 3.39; in that of RETASLKLGPHQPRIVEMKKGSNG, 4.12. In the case of RETASLKLSPHQPRIVEMKKGSNG it was 3.26; in that of RETASLKLMPHQPRIVEMKKGSNG, 3.02; in that of RETASLKLCPHQPRIVEMKKGSNG, 3.75. In the case of RETASLKLFPHQPRIVEMKKGSNG it was 3.26. As to RETASLKLVPHQPRIVEMKKGSNG, the protein stability index amounted to 3.36. In the case of RETASLKLDPHQPRIVEMKKGSNG it was 3.33; in that of RETASLKLPPHQPRIVEMKKGSNG, 3.

With RETASLKLHPHQPRIVEMKKGSNG, the protein stability index is 3.42. As for RETASLKLEPHQPRIVEMKKGSNG, the protein stability index amounted to 3.11. RETASLKLLPHQERIVEMKKGSNG: the protein stability index came out at 4.4. Regarding RETASLKLLPHQSRIVEMKKGSNG, the protein stability index was 3.92. In the case of RETASLKLLPHQTRIVEMKKGSNG it was 3.99; in that of RETASLKLLPHQDRIVEMKKGSNG, 4.22; in that of RETASLKLLPHQHRIVEMKKGSNG, 3.73. The result for RETASLKLLPHQVRIVEMKKGSNG reads 4.14. For the variant RETASLKLLPHQIRIVEMKKGSNG, the protein stability index was 3.29. RETASLKLLPHQNRIVEMKKGSNG: the protein stability index was determined as 3.67. The result for RETASLKLLPHQQRIVEMKKGSNG reads 4.81; that for RETASLKLLPHQMRIVEMKKGSNG, 3.88; that for RETASLKLLPHQWRIVEMKKGSNG, 3.25.

As for RETASLKLLPHQFRIVEMKKGSNG, the protein stability index turned out to be 3.63.

With RETASLKLLPHQCRIVEMKKGSNG, the protein stability index was found to be 2.35. Take RETASLKLLPHQLRIVEMKKGSNG: the protein stability index was found to be 4.35. Regarding RETASLKLLPHQARIVEMKKGSNG, the protein stability index was 4.09. In the case of RETASLKLLPHQRRIVEMKKGSNG it was 3.77; in that of RETASLKLLPHQGRIVEMKKGSNG, 4.14; in that of RETASLKLLPHQYRIVEMKKGSNG, 3.4. On to RETASLKLLPHQKRIVEMKKGSNG, for which the protein stability index is 4.07. On to RETASLDLLPHQPRIVEMKKGSNG, for which the protein stability index turned out to be 4.97. The result for RETASLFLLPHQPRIVEMKKGSNG reads 3.07; that for RETASLMLLPHQPRIVEMKKGSNG, 3.9; that for RETASLGLLPHQPRIVEMKKGSNG, 4.32.

In the case of RETASLILLPHQPRIVEMKKGSNG, the protein stability index was 3.68.

In the case of RETASLNLLPHQPRIVEMKKGSNG, the protein stability index was 4.86. Turning to RETASLVLLPHQPRIVEMKKGSNG, the protein stability index is 3.95. In the case of RETASLSLLPHQPRIVEMKKGSNG it was 4.29. In the case of RETASLWLLPHQPRIVEMKKGSNG it was 2.72; in that of RETASLRLLPHQPRIVEMKKGSNG, 4.05. As to RETASLYLLPHQPRIVEMKKGSNG, the protein stability index is 3.4. In the case of RETASLCLLPHQPRIVEMKKGSNG, the protein stability index was 3.89. Take RETASLALLPHQPRIVEMKKGSNG: the protein stability index was 4.19.

(Values after the supplement of paper PMC10567573.)
